Results published in PMC2944808, “Binding between Crossveinless-2 and Chordin Von Willebrand Factor Type C Domains Promotes BMP Signaling by Blocking Chordin Activity” (PLoS ONE, 2010).

Tests used:
Conditions in all cases: both partners purified
[1] = target: T1, VWC2 domain of Chordin, mouse (mouse); test: SPR; BIAcore 2000; VWC2 domain of Chordin immobilised, CV2 proteins perfused; apparent KD from koff/kon; 6 to 9 analyte concentrations, at least three independent experiments
T1 construct: Chordin, mouse, von Willebrand factor type C domain 2 (VWC2); also called Chordin VWC2; VWC2 of Chordin; source: SF9 cells, purified as described [12]

[2] = target: T2, Chordin, full-length, mouse (mouse, UniProt Q9Z0E2 27-948); test: SPR; BIAcore 2000; Chordin immobilised, CV2 proteins perfused; apparent KD from koff/kon; 6 to 9 analyte concentrations, at least three independent experiments
T2 construct: Chordin, mouse, full-length; source: SF9 cells, purified as described [12]
T2 sequence (looked up): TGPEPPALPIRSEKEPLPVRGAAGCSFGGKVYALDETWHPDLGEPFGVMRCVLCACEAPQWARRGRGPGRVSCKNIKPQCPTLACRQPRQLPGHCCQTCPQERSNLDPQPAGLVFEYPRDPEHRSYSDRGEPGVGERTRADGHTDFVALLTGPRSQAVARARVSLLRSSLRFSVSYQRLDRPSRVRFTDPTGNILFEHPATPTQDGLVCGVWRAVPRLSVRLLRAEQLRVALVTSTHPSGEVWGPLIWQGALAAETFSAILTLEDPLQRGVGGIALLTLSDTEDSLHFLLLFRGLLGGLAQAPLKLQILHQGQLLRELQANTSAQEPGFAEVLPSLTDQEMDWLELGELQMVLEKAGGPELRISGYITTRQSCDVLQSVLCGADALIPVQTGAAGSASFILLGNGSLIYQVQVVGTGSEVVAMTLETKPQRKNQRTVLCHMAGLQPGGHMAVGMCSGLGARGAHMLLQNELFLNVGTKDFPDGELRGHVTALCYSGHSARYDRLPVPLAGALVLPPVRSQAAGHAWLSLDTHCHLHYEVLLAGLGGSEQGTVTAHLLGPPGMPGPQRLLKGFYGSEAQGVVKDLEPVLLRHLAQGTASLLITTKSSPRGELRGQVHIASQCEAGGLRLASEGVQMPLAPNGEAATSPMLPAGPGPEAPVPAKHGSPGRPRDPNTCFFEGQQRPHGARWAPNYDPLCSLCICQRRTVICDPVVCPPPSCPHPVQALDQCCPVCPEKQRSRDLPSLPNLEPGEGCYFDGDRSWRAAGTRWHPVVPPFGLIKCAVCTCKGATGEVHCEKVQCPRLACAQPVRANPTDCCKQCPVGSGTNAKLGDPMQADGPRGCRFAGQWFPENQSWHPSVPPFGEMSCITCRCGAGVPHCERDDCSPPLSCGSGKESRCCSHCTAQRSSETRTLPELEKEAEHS

BMP2, human = target: T3, BMP2, human (human, UniProt P12643 283-396); test: SPR; BIAcore 2000; BMP2 immobilised, CV2 proteins perfused; apparent KD from koff/kon; 6 to 9 analyte concentrations, at least three independent experiments
T3 construct: Bone morphogenetic protein 2 (BMP2), human; The discussion speaks of 'the BMP dimer'; also called Bone morphogenetic protein 2; source: E. coli, purified as described [40]
T3 sequence (P12643 283-396): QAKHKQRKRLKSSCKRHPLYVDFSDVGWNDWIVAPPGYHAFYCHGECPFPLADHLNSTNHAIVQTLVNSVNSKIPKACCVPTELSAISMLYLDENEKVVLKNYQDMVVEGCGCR

B1: CV2-VWC1-4 (domain or fragment)
chain: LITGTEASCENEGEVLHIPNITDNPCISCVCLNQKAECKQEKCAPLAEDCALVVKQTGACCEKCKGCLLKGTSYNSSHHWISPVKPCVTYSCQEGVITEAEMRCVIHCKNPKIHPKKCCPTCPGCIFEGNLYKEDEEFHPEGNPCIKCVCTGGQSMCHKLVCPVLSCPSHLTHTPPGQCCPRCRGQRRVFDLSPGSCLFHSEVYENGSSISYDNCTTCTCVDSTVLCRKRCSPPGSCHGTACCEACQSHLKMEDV
Work on B1 yielded a Kd [1] of 145 nM, a Kd [2] of 180 nM and a Kd (BMP2, human) of 21 nM.

B2: CV2 ΔClip (domain or fragment)
chain: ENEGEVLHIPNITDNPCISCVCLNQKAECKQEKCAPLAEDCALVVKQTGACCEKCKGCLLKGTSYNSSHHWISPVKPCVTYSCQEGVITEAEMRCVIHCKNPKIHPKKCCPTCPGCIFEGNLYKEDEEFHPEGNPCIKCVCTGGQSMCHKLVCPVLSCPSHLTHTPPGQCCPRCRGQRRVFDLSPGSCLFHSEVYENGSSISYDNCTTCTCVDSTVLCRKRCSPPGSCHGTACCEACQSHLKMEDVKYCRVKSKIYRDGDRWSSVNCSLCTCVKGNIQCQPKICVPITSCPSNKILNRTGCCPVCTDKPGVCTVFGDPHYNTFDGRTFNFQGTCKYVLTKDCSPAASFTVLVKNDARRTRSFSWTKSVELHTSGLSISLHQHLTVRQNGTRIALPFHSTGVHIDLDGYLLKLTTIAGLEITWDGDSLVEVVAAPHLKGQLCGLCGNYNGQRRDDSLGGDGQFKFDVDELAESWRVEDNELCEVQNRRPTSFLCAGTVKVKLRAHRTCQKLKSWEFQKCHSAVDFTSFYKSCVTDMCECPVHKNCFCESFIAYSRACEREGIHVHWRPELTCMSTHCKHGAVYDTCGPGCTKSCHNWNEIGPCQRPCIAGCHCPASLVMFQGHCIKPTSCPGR
Work on B2 yielded a Kd [1] of 180 nM, a Kd [2] of 178 nM and a Kd (BMP2, human) of 50000 nM.
